Target: recombinant human PD-1 protein (human, UniProt Q15116 25-167)
Experiment: indirect ELISA, recombinant human PD-1 coated, HRP anti-human IgG (Fab specific), 4-parameter fit

recombinant human PD-1 protein, sequence (Q15116 25-167 limits assumed): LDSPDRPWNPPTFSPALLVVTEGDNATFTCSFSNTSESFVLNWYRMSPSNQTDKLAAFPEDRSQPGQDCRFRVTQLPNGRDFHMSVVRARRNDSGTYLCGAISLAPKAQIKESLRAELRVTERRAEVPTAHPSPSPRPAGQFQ

EC50: 0.0143 µg/mL
B1: Commercially available Tislelizumab (antibody, human IgG4 S228P, kappa)
heavy: QVQLQESGPGLVKPSETLSLTCTVSGFSLTSYGVHWIRQPPGKGLEWIGVIYADGSTNYNPSLKSRVTISKDTSKNQVSLKLSSVTAADTAVYYCARAYGNYWYIDVWGQGTTVTVSSASTKGPSVFPLAPCSRSTSESTAALGCLVKDYFPEPVTVSWNSGALTSGVHTFPAVLQSSGLYSLSSVVTVPSSSLGTKTYTCNVDHKPSNTKVDKRVESKYGPPCPPCPAPPVAGGPSVFLFPPKPKDTLMISRTPEVTCVVVAVSQEDPEVQFNWYVDGVEVHNAKTKPREEQFNSTYRVVSVLTVVHQDWLNGKEYKCKVSNKGLPSSIEKTISKAKGQPREPQVYTLPPSQEEMTKNQVSLTCLVKGFYPSDIAVEWESNGQPENNYKTTPPVLDSDGSFFLYSKLTVDKSRWQEGNVFSCSVMHEALHNHYTQKSLSLSLGK
light: DIVMTQSPDSLAVSLGERATINCKSSESVSNDVAWYQQKPGQPPKLLINYAFHRFTGVPDRFSGSGYGTDFTLTISSLQAEDVAVYYCHQAYSSPYTFGQGTKLEIKRTVAAPSVFIFPPSDEQLKSGTASVVCLLNNFYPREAKVQWKVDNALQSGNSQESVTEQDSKDSTYSLSSTLTLSKADYEKHKVYACEVTHQGLSSPVTKSFNRGEC

Reference: patent EP4692127A1 (Kangma-Healthcode (Shanghai) Biotech Co., Ltd, dated 2026)
